Results: the Human Domainome abundance scans (Beltran et al. 2025)
± gives the uncertainty stated by the source.

B1: PDZ and LIM domain protein 2, residues 284 to 339; numbered along this chain, Q96JY6 (parent)
chain: HTCEKCSTSIANQAVRIQEGRYRHPGCYTCADCGLNLKMRGHFWVGDELYCEKHAR

Variants of: B1
Test: abundance fitness (aPCA) (normalised: wild type 0, dead -1); higher = more abundant; growth selection in yeast, the domain comes from the species named
Settings: Homo sapiens
In the case of HTCEKCSTSIANQAVRIQEGRYRHPGCYTCADDGLNLKMRGHFWVGDELYCEKHAR [C33D], the abundance fitness is reported as -0.695 ± 0.19.
HTCEKCSTSIANQAVRIQEGRYRHPGCYTCADAGLNLKMRGHFWVGDELYCEKHAR [C33A] gave an abundance fitness of -0.94 ± 0.072.
With HTCEKCSTSIANQAVRIQEGRYRHPGCYTCADFGLNLKMRGHFWVGDELYCEKHAR [C33F] the abundance fitness was -0.876 ± 0.14.
Variant HTCEKCSTSIANQAVRIQEGRYRHPGCYTCADEGLNLKMRGHFWVGDELYCEKHAR [C33E] has an abundance fitness of -1.05 ± 0.18.
For HTCEKCSTSIANQAVRIQEGRYRHPGCYTMADCGLNLKMRGHFWVGDELYCEKHAR [C30M], the abundance fitness was -0.712 ± 0.13.
HTCEKCSTSIANQAVRIQEGRYRHPGCYTSADCGLNLKMRGHFWVGDELYCEKHAR [C30S] showed an abundance fitness of -0.921 ± 0.15.
HTCEKCSTSIANQAVRIQEGRYRHPGCYTNADCGLNLKMRGHFWVGDELYCEKHAR [C30N] gave an abundance fitness of -0.788 ± 0.35.
For HTCEKCSTSIANQAVRIQEGRYRHPGCYTTADCGLNLKMRGHFWVGDELYCEKHAR [C30T], the abundance fitness was -0.642 ± 0.07.
Work on HTCEKCSTSIANQAVRIQEGRYRHPGCYTPADCGLNLKMRGHFWVGDELYCEKHAR [C30P] yielded an abundance fitness of -0.671 ± 0.17.
In the case of HTCEKCSTSIANQAVRIQEGRYRHPGCYTWADCGLNLKMRGHFWVGDELYCEKHAR [C30W], the abundance fitness is reported as -1.05 ± 0.23.
Work on HTCEKCSTSIANQAVRIQEGRYRHPGCYTYADCGLNLKMRGHFWVGDELYCEKHAR [C30Y] yielded an abundance fitness of -0.956 ± 0.12.
Variant HTCEKCSTSIANQAVRIQEGRYRHPGCYTVADCGLNLKMRGHFWVGDELYCEKHAR [C30V] has an abundance fitness of -0.789 ± 0.19.
Variant HTCEKCSTSIANQAVRIQEGRYRHPGCYTLADCGLNLKMRGHFWVGDELYCEKHAR [C30L] has an abundance fitness of -1.03 ± 0.14.
Work on HTCEKCSTSIANQAVRIQEGRYRHPGCYTCAPCGLNLKMRGHFWVGDELYCEKHAR [D32P] yielded an abundance fitness of -0.824 ± 0.17.
For HTCEKCSTSIANQAVRIQEGRYRHPGCYTCAGCGLNLKMRGHFWVGDELYCEKHAR [D32G], the abundance fitness was -0.178 ± 0.054.
For HTCEKCSTSIANQAVRIQEGRYRHPGCYTCATCGLNLKMRGHFWVGDELYCEKHAR [D32T], the abundance fitness was 0.057 ± 0.061.
HTCEKCSTSIANQAVRIQEGRYRHPGCYTCAYCGLNLKMRGHFWVGDELYCEKHAR [D32Y] gave an abundance fitness of -0.106 ± 0.087.
In the case of HTCEKCSTSIANQAVRIQEGRYRHPGCYTCACCGLNLKMRGHFWVGDELYCEKHAR [D32C], the abundance fitness is reported as -0.188 ± 0.12.
In the case of HTCEKCSTSIANQAVRIQEGRYRHPGCYTCAFCGLNLKMRGHFWVGDELYCEKHAR [D32F], the abundance fitness is reported as 0.006 ± 0.082.
HTCEKCSTSIANQAVRIQEGRYRHPGCYTCAECGLNLKMRGHFWVGDELYCEKHAR [D32E] showed an abundance fitness of -0.171 ± 0.083.
HTCEKCSTSIANQAVRIQEGRYRHPGCYTCAICGLNLKMRGHFWVGDELYCEKHAR [D32I] showed an abundance fitness of -0.284 ± 0.11.
Work on HTCEKCSTSIANQAVRIQEGRYRHPGCYTCAVCGLNLKMRGHFWVGDELYCEKHAR [D32V] yielded an abundance fitness of -0.245 ± 0.093.
Variant HTCEKCSTSIANQAVRIQEGRYRHPGCYTCALCGLNLKMRGHFWVGDELYCEKHAR [D32L] has an abundance fitness of -0.099 ± 0.075.
With HTCEKCSTSIANQAVRIQEGRYRHPGCYTCAHCGLNLKMRGHFWVGDELYCEKHAR [D32H] the abundance fitness was 0.027 ± 0.11.
Variant HTCEKCSTSIANQAVRIQEGRYRHPGCYTCAWCGLNLKMRGHFWVGDELYCEKHAR [D32W] has an abundance fitness of -0.235 ± 0.06.
Work on HTCEKCSTSIANQAVRIQEGRYRHPGCYTCAMCGLNLKMRGHFWVGDELYCEKHAR [D32M] yielded an abundance fitness of -0.022 ± 0.095.
Work on HTCEKCSTSIANQAVRIQEGRYRHPGCYTCAACGLNLKMRGHFWVGDELYCEKHAR [D32A] yielded an abundance fitness of -0.361 ± 0.078.
With HTCEKCSTSIANQAVRIQEGRYRHPGCYTCARCGLNLKMRGHFWVGDELYCEKHAR [D32R] the abundance fitness was 0.124 ± 0.077.
HTCEKCSTSIANQAVRIQEGRYRHPGCYTCAQCGLNLKMRGHFWVGDELYCEKHAR [D32Q] gave an abundance fitness of -0.336 ± 0.096.
With HTCEKCSTSIANQAVRIQEGRYRHPGCYTCASCGLNLKMRGHFWVGDELYCEKHAR [D32S] the abundance fitness was -0.193 ± 0.072.
For HTCEKCSTSIANQAVRIQEGRYRHPGCYTCHDCGLNLKMRGHFWVGDELYCEKHAR [A31H], the abundance fitness was -0.257 ± 0.1.
HTCEKCSTSIANQAVRIQEGRYRHPGCYTCNDCGLNLKMRGHFWVGDELYCEKHAR [A31N] gave an abundance fitness of 0.086 ± 0.12.
In the case of HTCEKCSTSIANQAVRIQEGRYRHPGCYTCCDCGLNLKMRGHFWVGDELYCEKHAR [A31C], the abundance fitness is reported as -0.146 ± 0.12.
HTCEKCSTSIANQAVRIQEGRYRHPGCYTCSDCGLNLKMRGHFWVGDELYCEKHAR [A31S] gave an abundance fitness of -0.103 ± 0.085.
HTCEKCSTSIANQAVRIQEGRYRHPGCYTCIDCGLNLKMRGHFWVGDELYCEKHAR [A31I] gave an abundance fitness of -0.454 ± 0.19.
Variant HTCEKCSTSIANQAVRIQEGRYRHPGCYTCFDCGLNLKMRGHFWVGDELYCEKHAR [A31F] has an abundance fitness of 0.039 ± 0.13.
In the case of HTCEKCSTSIANQAVRIQEGRYRHPGCYTCLDCGLNLKMRGHFWVGDELYCEKHAR [A31L], the abundance fitness is reported as 0.119 ± 0.079.
Work on HTCEKCSTSIANQAVRIQEGRYRHPGCYTCWDCGLNLKMRGHFWVGDELYCEKHAR [A31W] yielded an abundance fitness of -0.052 ± 0.12.
HTCEKCSTSIANQAVRIQEGRYRHPGCYTCMDCGLNLKMRGHFWVGDELYCEKHAR [A31M] showed an abundance fitness of 0.027 ± 0.087.
For HTCEKCSTSIANQAVRIQEGRYRHPGCYTCEDCGLNLKMRGHFWVGDELYCEKHAR [A31E], the abundance fitness was 0.082 ± 0.12.
HTCEKCSTSIANQAVRIQEGRYRHPGCYTCPDCGLNLKMRGHFWVGDELYCEKHAR [A31P] showed an abundance fitness of -0.238 ± 0.084.
For HTCEKCSTSIANQAVRIQEGRYRHPGCYTCGDCGLNLKMRGHFWVGDELYCEKHAR [A31G], the abundance fitness was 0.019 ± 0.08.
With HTCEKCSTSIANQAVRIQEGRYRHPGCYTCDDCGLNLKMRGHFWVGDELYCEKHAR [A31D] the abundance fitness was -0.175 ± 0.11.
For HTCEKCSTSIANQAVRIQEGRYRHPGCYTCTDCGLNLKMRGHFWVGDELYCEKHAR [A31T], the abundance fitness was -0.099 ± 0.095.
In the case of HTCEKCSTSIANQAVRIQEGRYRHPGCYTCVDCGLNLKMRGHFWVGDELYCEKHAR [A31V], the abundance fitness is reported as -0.029 ± 0.075.
HTCEKCSTSIANQAVRIQEGRYRHPGCYTCYDCGLNLKMRGHFWVGDELYCEKHAR [A31Y] gave an abundance fitness of -0.226 ± 0.17.
For HTCEKCSTSIANQAVRIQEGRYRHPGCYTCRDCGLNLKMRGHFWVGDELYCEKHAR [A31R], the abundance fitness was 0.047 ± 0.067.
